Two molecules from paper PMC9640584, “An active site loop toggles between conformations to control antibiotic hydrolysis and inhibition potency for CTX-M β-lactamase drug-resistance enzymes” (Nature Communications, 2022) can be followed below.

What all share (assay): enzyme inhibition assay (nitrocefin hydrolysis, Ki by fit to the Morrison equation); increasing concentrations of BLIP incubated with β-lactamase (0.05-0.6 nM) for 20 min, then nitrocefin added; initial velocity at 482 nm; 50 mM sodium phosphate pH 7.0, 100 μg/ml BSA
The target of test [1] is CTX-M-14 N106S β-lactamase.
Test [2] has as its target CTX-M-15 G240D β-lactamase (Klebsiella pneumoniae).
The target in test [3] is CTX-M-15 N106S β-lactamase (Klebsiella pneumoniae).
The target of test [4] is CTX-M-15 β-lactamase, wild type (Klebsiella pneumoniae).
For test [5], the target named is T1, CTX-M-14 β-lactamase, wild type (UniProt Q9L5C7 29-291).
T1 construct: also called CTX-M-14 wild type; source: E. coli BL21(DE3), pET28a, purified (Co2+ Talon, TEV cleavage, Ni2+ Sepharose); not shown: His6, N-terminal, cleaved
To be noted: both partners purified.

In the case of “β-lactamase inhibitory protein (BLIP), wild type (from UniProt P35804) (natural protein)”, the Ki in test [1] was 2.1 nM; in test [2], 5 nM; in test [3] it was 0.35 nM; in test [4] it was 2.9 nM.

B1: β-lactamase inhibitory protein (BLIP), wild type (natural protein)
chain: AGVMTGAKFTQIQFGMTRQQVLDIAGAENCETGGSFGDSIHCRGHAAGDYYAYATFGFTSAAADAKVDSKSQEKLLAPSAPTLTLAKFNQVTVGMTRAQVLATVGQGSCTTWSEYYPAYPSTAGVTLSLSCFDVDGYSSTGFYRGSAHLWFTDGVLQGKRQWDLV
notes: No removal of the His tag is described; source: E. coli RB791, plasmid pGR32, purified (Co2+ Talon column, gel filtration)
Molecule B1 gave a Ki in test [5] of 330 nM.

What is called Ki is the equilibrium dissociation constant of an inhibitor or competing ligand from its target.
